The source of these data is PMC5566378, “The human IL-17A/F heterodimer: a two-faced cytokine with unique receptor recognition properties” (Scientific Reports, 2017).

A word on the Kd: it is a measure of binding affinity in units of concentration. Higher therefore signals lower affinity.

Holding throughout (details): both partners purified
Assay [1] has as its target T1, human IL-17RC extracellular domain (human, UniProt Q8NAC3-2 21-467).
T1 construct: human IL-17RC full-length extracellular domain, residues 21-467 of UniProt entry Q8NAC3-2, secreted with the CD33 signal peptide; numbers count on: isoform Q8NAC3-2; also called IL-17RC ECD; source: GnTI-deficient HEK293S, transient expression, purified (anti-APP antibody column, Resource-Q, Superdex-200 SEC)
T1 sequence (looked up): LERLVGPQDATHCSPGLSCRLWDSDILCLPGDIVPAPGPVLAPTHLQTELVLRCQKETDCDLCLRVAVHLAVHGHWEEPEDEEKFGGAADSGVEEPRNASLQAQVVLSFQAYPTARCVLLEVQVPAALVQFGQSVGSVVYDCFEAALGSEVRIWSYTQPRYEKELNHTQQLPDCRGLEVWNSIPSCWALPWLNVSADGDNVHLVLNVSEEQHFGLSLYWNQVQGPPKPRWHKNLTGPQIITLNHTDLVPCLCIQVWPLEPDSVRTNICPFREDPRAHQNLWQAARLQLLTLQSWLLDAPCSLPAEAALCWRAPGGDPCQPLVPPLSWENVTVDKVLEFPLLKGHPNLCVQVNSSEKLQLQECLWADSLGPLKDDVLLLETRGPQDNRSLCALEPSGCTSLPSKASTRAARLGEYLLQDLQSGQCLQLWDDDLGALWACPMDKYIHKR
In words: SPR; Biacore 8K; IL-17RC ECD immobilised (about 500 RU) by amine coupling on a CM4 chip; cytokines as analytes in PBS pH 7.4, 3 mM EDTA, 0.05% Tween20; 20 °C, 30 µl/min; 1:1 Langmuir model, steady-state analysis for variants of weaker affinity; mean of at least five independent experiments.

The target in assay [2] is T2, human IL-17RA extracellular domain (human, UniProt Q96F46 33-320, biotin on the Avi-tag (BirA) for SPR measurements).
T2 construct: human IL-17RA full-length extracellular domain, residues 33-320 of UniProt Q96F46, secreted with the CD33 signal peptide; The construct is described 'for crystallization'; the SPR sample is the same ECD biotinylated on its Avi-tag; In the crystal the complex was treated with PNGaseF and Endoglycosidase H and biotinylation is not mentioned; also called IL-17RA ECD; source: GnTI-deficient HEK293S, …
The assay is described as follows: SPR; Biacore 8K; biotinylated IL-17RA ECD immobilised (about 500 RU) on a streptavidin SA chip; cytokines as analytes in PBS pH 7.4, 3 mM EDTA, 0.05% Tween20; 20 °C, 30 µl/min; 1:1 Langmuir model, steady-state analysis for variants of weaker affinity; mean of at least five independent experiments. Background: SPR reads the build-up and loss of mass on a sensor chip optically.

In assay [3] the target is T3, human IL-17RA extracellular domain (human, UniProt Q96F46 33-320, biotin on the Avi-tag (E. coli BirA), for the SPR measurements only).
T3 construct: human IL-17RA, full-length extracellular domain, residues 33-320 of UniProt Q96F46, cloned behind the CD33 signal peptide; The same construct was used unbiotinylated for the complex and its crystals (treated with PNGaseF and Endoglycosidase H) and biotinylated for SPR; also called IL-17RA ECD; IL-17RA receptor; source: GnTI-deficient HEK293S, transient expression, secreted, purified (anti-APP …)
In words: SPR; Biacore 8K; biotinylated IL-17RA ECD immobilised on a streptavidin chip (about 500 RU); cytokines as analytes in PBS pH 7.4, 3 mM EDTA, 0.05% Tween20; 20 °C, 30 µl/min; 1:1 Langmuir model or steady-state analysis.

Assay [4] concerns the target T4, human IL-17RC extracellular domain (human, UniProt Q8NAC3-2 21-467).
T4 construct: human IL-17RC, full-length extracellular domain, residues 21-467 of UniProt Q8NAC3-2, cloned behind the CD33 signal peptide; numbers count on: isoform Q8NAC3-2; also called IL-17RC ECD; IL-17RC receptor
T4 sequence (looked up): T1 sequence (looked up)
In words: SPR; Biacore 8K; IL-17RC ECD amine-coupled on a CM4 chip (about 500 RU); cytokines as analytes in PBS pH 7.4, 3 mM EDTA, 0.05% Tween20; 20 °C, 30 µl/min; 1:1 Langmuir model or steady-state analysis.

Where a chain is given by its changes, count along the chain named. Names may count otherwise.

B1: human IL-17F homodimer, wild type (ligand, UniProt Q96PD4 31-163, looked up)
chain: RKIPKVGHTFFQKPESCPPVPGGSMKLDIGIINENQRVSMSRNIESRSTSPWNYTVTWDPNRYPSEVVQAQCRNLGCINAQGKEDISMNSVPIQQETLVVRRKHQGCSVSFQLEKVLVTVGCTCVTPVIHHVQ
notes: human IL-17F, residues 31-163 of UniProt Q96PD4, secreted with the CD33 signal peptide (P20138-1); also called IL-17F wt
Molecule B1 displayed a dissociation constant (Kd) in assay [1] of 4 nM.

B2: human IL-17F homodimer, R77A (ligand, UniProt Q96PD4 31-163, looked up)
chain: B1 chain with R47A
notes: human IL-17F, residues 31-163 of UniProt Q96PD4, secreted with the CD33 signal peptide, Arg77 to alanine; also called IL-17F R77A; source: HEK293S, transient expression, purified (as the wild type)
With B2, the Kd in assay [1] worked out at 905 nM; in assay [2] it was 726 nM.

B3: human IL-17F homodimer, Arg77 to alanine mutant (ligand, UniProt Q96PD4 31-163, looked up)
chain: B1 chain with R47A
notes: human IL-17F, residues 31-163 of UniProt Q96PD4, cloned behind the CD33 signal peptide and the APP6-tag, R77A; also called IL-17F R77A; point mutant of the IL-17F homodimer; source: HEK293S, transient expression, secreted, purified
Take B3: the “fold reduction in affinity against wild-type IL-17F” value in assay [3] was greater than 5 fold. Moreover, the “fold reduction in binding affinity against wild-type IL-17F” value in assay [4] is no less than 200 fold.
